We go through two molecules from publication PMC2811193, “Complementary Roles in Cancer Prevention: Protease Inhibitor Makes the Cancer Preventive Peptide Lunasin Bioavailable” (PLoS ONE, 2010).

Series [1] relates to Pancreatin from porcine pancreas. Description: In vitro digestion of lunasin with pancreatin, with or without protease inhibitors. Format: in vitro ADME. The settings on record: inhibitor 18,000 ng, lunasin 600 ng, pancreatin 600 ng, 1 h at 37°C; also after heat denaturation of the inhibitor. On the procedure:
Figure 2 Soy-derived BBI and KTI protect synthetic lunasin from in vitro digestion. The upper, lighter bands are Coomassie Blue protein stains and the lower, darker bands are Western blots. (M) Markers, (1) Lunasin (600 ng) + pancreatin (600 ng) incubated for 0 h at 37°C, (2) Lunasin (600 ng) + pancreatin (600 ng) incubated for 1 h at 37°C, (3) Lunasin (600 ng) + BBI (18,000 ng, unboiled) + pancreatin (600 ng) incubated for 1 h at 37°C, (4). Lunasin (600 ng) + KTI (18,000 ng, unboiled) + pancreatin (600 ng) incubated for 1 h at 37°C, (5) Lunasin (600 ng) + BBI (18,000 ng, boiled) + pancreatin (600 ng) incubated for 1 h at 37°C, (6) Lunasin (600 ng)+KTI (18,000 ng, boiled) + pancreatin (600 ng) incubated for 1 h at 37°C, (7) BBI (unboiled), (8) KTI (unboiled).
In vitro digestion of lunasin was carried out following the method published in the United States Pharmacopeia. Synthetic lunasin (American Peptide Company, Inc. Sunnyvale, CA, USA) (5 µg) was incubated with the protease inhibitors BBI or KTI (Sigma, St. Louis, MO, USA) for 30 min at 25°C. Pancreatin from porcine pancreas (Sigma) was added (enzyme∶protein ratio of 1∶10) and solution was incubated at 37°C for 1 h. Tris-tricine sample buffer was added at the end of the reaction and immediately stopped by placing the tubes in a boiling water bath for 5 min. The digests were analyzed by SDS-PAGE and Western-Blot following the protocol previously described.

Series [2] has as its system DMBA-induced NIH3T3 cells. Put plainly: Foci formation assay in DMBA-induced NIH3T3 cells. Format: cell-based. The settings on record: 100 nM peptide; 1.5 µg/ml DMBA; 6 weeks; n = 6. How it is done: The foci formation assay was performed according to Reznikoff et al. NIH3T3 cells were obtained from American Type Culture Collection (ATCC) and cultured in RPMI 1640 medium supplemented with 10% fetal bovine serum (FBS) (Invitrogen, Carlsbad, CA, USA). Cells were plated at a density of 500 cells/well in 12-well plates, incubated overnight at 37°C and treated with lunasin or BBI for 4 hrs. Then, cells were treated with 1.5 µg/ml DMBA for 20 hrs. After washing with PBS, fresh medium was added. Peptides were added and medium was changed every week for 6 weeks. At the end of experiment, cells were washed with 0.9% NaCl, fixed with methanol, stained with Giemsa, and scored for transformed foci. The negative control was a set of cells receiving no DMBA, while the positive control consisted of cells induced by DMBA but without treatment.

The test system of series [3] is Ki-67 expression in MDA-MB-231 tumors. Description: Immunohistochemical staining of xenograft tumor sections for Ki-67 labeling index. Format: in vivo, athymic NCr-nu/nu mice. The settings on record: 20 mg/kg body weight i.p.; tumors collected 7 weeks after cells injection. On the procedure:
Sections were evaluated for tumor cell cytology, growth pattern, necrosis and apoptosis. The 5 µm sections were deparaffinized and rehydrated and antigens were retrieved using citrate buffer (pH 6.0) before endogenous peroxidase activity was blocked. Proliferation was shown using an antibody against Ki-67 (MIB-1; DakoCytomation, Glostrup, Denmark, dilution 1∶75). Antigen expression was expressed using streptavidin conjugated to horseradish peroxidase and visualized by diaminobenzidine chromogen reagent (DakoCytomation). All immunohistochemistry slides were examined by light microscopy (Axiophot 381, Zeiss, Germany). Ki-67 labeling index was calculated as percentage of positive cells over total number of cells counted in microscope at 400× magnification.

Series [4] relates to MDA-MB-231 tumor xenografts. Description: Breast cancer prevention in MDA-MB-231 xenograft mouse model. Format: in vivo, athymic NCr-nu/nu mice. On the procedure:
Human MDA-MB-231 breast cancer cells were obtained from ATCC and grown in Leibovitz's L-15 Medium supplemented with 10% FBS, 100 unit/ml penicillin, and 100 µg/ml streptomycin (Invitrogen), in a humidified atmosphere at 37°C.
Mice protocol was approved by ACUC (University of California, Berkeley, CA, USA). Thirty-two six weeks-old athymic NCr-nu/nu mice (National Cancer Institute, Frederick, MD, USA) were acclimatized for 1 week and randomly divided into four groups (n = 8): control group (receiving PBS), BBI-group (receiving BBI at 20 mg/kg body weight), and two lunasin-groups (receiving synthetic lunasin [Chengdu KaiJie Bio-Pharmaceutical Co., Chengdu, P.R. China] at 20 mg/kg body weight and 4 mg/kg body weight). After two months of i.p. treatment three times a week, mice were injected subcutaneously in the right flank with 1×10^7 MDA-MB-231 cells suspended in 0.1 ml of Matrigel Basement Membrane Matrix (Becton Dickinson, Bedford, MA, USA). Tumor growth was monitored by palpation, and the onset when tumors were detectable was noted. Tumor size was measured with calipers, and tumor volume was calculated assuming the shape as ellipsoid. Tumor incidence in percentage was calculated as the number of tumor-bearing mice divided by the total number of mice in each group, whereas tumor generation was calculated as the total number of tumors divided by total number of mice in each group. The volume of the tumor was determined using the following formula: tumor volume = length × width^2 ×0.523 [41].
At the end of the experiment, animals were sacrificed, and tumors were dissected and weighed. Individual tumors were split for fixation in the Shando Glyo-Fixx™ (Thermo Scientific, Pittsburgh, PA, USA) for histological examination. The paraffin-embedded sections were stained with hematoxylin and eosin (H&E).

Series [5] has as its system MDA-MB-231 tumors. Put plainly: In situ TUNEL assay for apoptosis in xenograft tumor sections. Format: in vivo, athymic NCr-nu/nu mice. The settings on record: lunasin 20 and 4 mg/kg (P = 0.0088, 0.0141 vs control), BBI 20 mg/kg i.p. How it is done:
In situ terminal deoxynucleotidyl transferase-mediated dUTP nick end labeling (TUNEL) assay was performed using ApopTag Detection Kit (Millipore, USA & Canada) and ran based on the manufacturer's protocol. Briefly, deparaffinized and rehydrated sections were pretreated with 20 µg/mL proteinase K for 15 min and incubated with terminal transferase and digoxigenin dUTP at 37°C for 1 h. After washing, sections were incubated with antidigoxigenin rhodamine (Millipore) and DAPI (Invitrogen), and slides were visualized by fluorescent microscopy (Axiophot 381). The apoptotic cells were calculated as percentage of positive cells over total number of cells counted in microscope at 400× magnification.

B1: KTI: soy Kunitz Trypsin Inhibitor, a protease inhibitor contained in soybean (protein, UniProt P01070 25-205, looked up)
Trypsin inhibitor A: DFVLDNEGNPLENGGTYYILSDITAFGGIRAAPTGNERCPLTVVQSRNELDKGIGTIISSPYRIRFIAEGHPLSLKFDSFAVIMLCVGIPTEWSVVEDLPEGPAVKIGENKDAMDGWFRLERVSDDEFNNYKLVFCPQQAEDDKCGDIGISIDHDDGTRRLVVSKNKPLVVQFQKLDKESL
Consider B1, for which the “protection of lunasin from in vitro digestion with pancreatin” value in series [1] is given as “protect lunasin from digestion”.

B2: BBI: polypeptide of 71 amino acids with the ability to inhibit the serine proteases trypsin and chymotrypsin (protein, UniProt P01055 40-110, looked up)
Bowman-Birk type proteinase …: DDESSKPCCDQCACTKSNPPQCRCSDMRLNSCHSACKSCICALSYPAQCFCVDITDFCYEPCKPSEDDKEN
In the case of B2, the “reduction of foci formation” value in series [2] stood at 60%. Moreover, the “reduction of Ki-67 expression compared with the control group” value in series [3] was “no significant difference”. For the same molecule, in series [4] (20 mg/kg body weight i.p. three times a week, seven weeks post-cells injection, n = 8), the “tumor incidence (mice showing tumors)” value came out at 88%. For the same molecule, the “tumor incidence lower compared with the control” value in series [4] (20 mg/kg body weight i.p., seven weeks post-cells injection) is “no effect”. In addition, the tumor generation entry in series [4] (20 mg/kg body weight i.p., versus vehicle-treated group) is “ineffective”. Moreover, the body weight result in series [4] (i.p. three times a week, BBI 20 mg/kg, lunasin 20 and 4 mg/kg body weight, compared among the four groups, n = 8) is “No significant differences”. Further, the “protection of lunasin from in vitro digestion with pancreatin” value in series [1] is “protect lunasin from digestion”. Besides, the “TUNEL-positive apoptotic cells in tumors” value in series [5] was “Few TUNEL-positive cells”.
